From the supplement of paper PMC6757056 come the findings set out here.

± gives the standard deviation of the averaged measurements.

The labels stand for the following.
B1: library; a variant is named by its letters at N, in order (parent)
chain: GCUGUCACCGGUGUAUUACCCUAGUGGUCGACCGGUCUGAUGAGUCUNNNNNNAGACGAAACAGC

Series [1] covers variants of B1. The experiment in a line: normalized RNA/DNA level with ligand (relative to sTRSVctl = 100) (log10 (% of sTRSVctl)); ligand: hypoxanthine (xanthine aptamer); higher = less ribozyme self-cleavage, higher mRNA level. Conditions: ligand concentration (+) RNA-Seq: 5 mM, HEK293T, reporter: mCherry (pCS4076), ligand present: yes. The gist of the method: (§1)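 Only sequences with at least 100 DNA reads were analyzed, from HEK293T cells transfected with 4 µg per 6-well well of ribozyme switch library plasmids 72 h before RNA extraction with EDTA. Any ligand was added 1 h before transfection. RNA level was defined as RNA over DNA reads, normalized to a spiked-in non-cleaving sequence or to the top sequences, then scaled and log-transformed. The top set was 25 sequences, and the scaling was ×100 followed by log10.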

Series [2] covers variants of B1. Kind of series: normalized RNA/DNA level without ligand (relative to sTRSVctl = 100) (log10 (% of sTRSVctl)); ligand: hypoxanthine (xanthine aptamer); higher = less ribozyme self-cleavage, higher mRNA level. Conditions: HEK293T, reporter: mCherry (pCS4076), ligand present: no. The gist of the method: as §1

As for GGACCA, the “normalized RNA/DNA level with ligand (log10)” value in series [1] came to 1.916 ± 0.0027. In addition, the “normalized RNA/DNA level without ligand (log10)” value in series [2] worked out at 1.881 ± 0.0056.

On to GGACCC, for which the “normalized RNA/DNA level with ligand (log10)” value in series [1] was 1.96 ± 0.065. The “normalized RNA/DNA level without ligand (log10)” value in series [2] amounted to 1.93 ± 0.023.

As for ACUGCC, the “normalized RNA/DNA level with ligand (log10)” value in series [1] worked out at 1.9853 ± 0.0019. Further, the “normalized RNA/DNA level without ligand (log10)” value in series [2] amounted to 1.89 ± 0.065.

As to ACUGCU, in series [1], the “normalized RNA/DNA level with ligand (log10)” value was 1.91 ± 0.033. Moreover, the “normalized RNA/DNA level without ligand (log10)” value in series [2] stood at 1.86 ± 0.037.

Regarding UCUGGU, the “normalized RNA/DNA level with ligand (log10)” value in series [1] was 1.96 ± 0.031. The “normalized RNA/DNA level without ligand (log10)” value in series [2] turned out to be 1.69 ± 0.084.

Regarding AGACGC, in series [1], the “normalized RNA/DNA level with ligand (log10)” value turned out to be 1.923 ± 0.0088. The “normalized RNA/DNA level without ligand (log10)” value in series [2] came to 1.69 ± 0.044.

On to GGAGGC, for which the “normalized RNA/DNA level with ligand (log10)” value in series [1] was determined as 1.82 ± 0.08. The “normalized RNA/DNA level without ligand (log10)” value in series [2] was 1.37 ± 0.057.

For the variant GGAGGG, in series [1], the “normalized RNA/DNA level with ligand (log10)” value turned out to be 1.883 ± 0.018. In series [2], the “normalized RNA/DNA level without ligand (log10)” value was determined as 1.493 ± 0.0022.

With AGAGGC, in series [1], the “normalized RNA/DNA level with ligand (log10)” value is 1.987 ± 0.014. Also, the “normalized RNA/DNA level without ligand (log10)” value in series [2] came out at 1.86 ± 0.068.

On to AGAGGG, for which the “normalized RNA/DNA level with ligand (log10)” value in series [1] is 1.837 ± 0.0044. For the same variant, the “normalized RNA/DNA level without ligand (log10)” value in series [2] came out at 1.44 ± 0.035.

Consider GGCACA, for which the “normalized RNA/DNA level with ligand (log10)” value in series [1] was found to be 1.885 ± 0.002. Also, the “normalized RNA/DNA level without ligand (log10)” value in series [2] was determined as 1.86 ± 0.03.

As to GCUUUU, the “normalized RNA/DNA level with ligand (log10)” value in series [1] amounted to 1.96 ± 0.011. The “normalized RNA/DNA level without ligand (log10)” value in series [2] turned out to be 1.831 ± 0.01.

For UGACUG, in series [1], the “normalized RNA/DNA level with ligand (log10)” value turned out to be 1.912 ± 0.0096. In series [2], the “normalized RNA/DNA level without ligand (log10)” value stood at 1.77 ± 0.043.

In the case of UGACUU, in series [1], the “normalized RNA/DNA level with ligand (log10)” value was determined as 1.913 ± 0.0093. Moreover, in series [2], the “normalized RNA/DNA level without ligand (log10)” value was found to be 1.89 ± 0.03.

Regarding UGACAA, the “normalized RNA/DNA level with ligand (log10)” value in series [1] was found to be 1.918 ± 0.012. Further, in series [2], the “normalized RNA/DNA level without ligand (log10)” value turned out to be 1.74 ± 0.078.

Consider UGACAU, for which the “normalized RNA/DNA level with ligand (log10)” value in series [1] was found to be 1.937 ± 0.0061. In addition, the “normalized RNA/DNA level without ligand (log10)” value in series [2] was determined as 1.81 ± 0.033.

For GGAUGU, the “normalized RNA/DNA level with ligand (log10)” value in series [1] was determined as 1.93 ± 0.033. For the same variant, the “normalized RNA/DNA level without ligand (log10)” value in series [2] was determined as 1.746 ± 0.0056.

As to UGAGGG, the “normalized RNA/DNA level with ligand (log10)” value in series [1] worked out at 1.87 ± 0.036. Further, the “normalized RNA/DNA level without ligand (log10)” value in series [2] worked out at 1.514 ± 0.0058.

With UGAGGC, the “normalized RNA/DNA level with ligand (log10)” value in series [1] came to 1.94 ± 0.03. In series [2], the “normalized RNA/DNA level without ligand (log10)” value amounted to 1.9 ± 0.079.

Take UGAGGU: in series [1], the “normalized RNA/DNA level with ligand (log10)” value was 1.94 ± 0.035. Also, in series [2], the “normalized RNA/DNA level without ligand (log10)” value was 1.665 ± 0.015.

In the case of ACUUAU, in series [1], the “normalized RNA/DNA level with ligand (log10)” value is 1.9 ± 0.029. For the same variant, the “normalized RNA/DNA level without ligand (log10)” value in series [2] was determined as 1.729 ± 0.014.

In the case of ACUUAC, the “normalized RNA/DNA level with ligand (log10)” value in series [1] was found to be 1.93 ± 0.046. In addition, the “normalized RNA/DNA level without ligand (log10)” value in series [2] is 1.84 ± 0.052.

In the case of CGAUAU, the “normalized RNA/DNA level with ligand (log10)” value in series [1] was 1.911 ± 0.0083. For the same variant, in series [2], the “normalized RNA/DNA level without ligand (log10)” value was determined as 1.74 ± 0.024.

Take UGAACG: in series [1], the “normalized RNA/DNA level with ligand (log10)” value was determined as 1.91 ± 0.034. Besides, the “normalized RNA/DNA level without ligand (log10)” value in series [2] is 1.823 ± 0.0083.

For the variant UGAACC, the “normalized RNA/DNA level with ligand (log10)” value in series [1] worked out at 1.9742 ± 0.00065. The “normalized RNA/DNA level without ligand (log10)” value in series [2] worked out at 1.92 ± 0.057.

As for GGACGU, the “normalized RNA/DNA level with ligand (log10)” value in series [1] was found to be 1.887 ± 0.013. The “normalized RNA/DNA level without ligand (log10)” value in series [2] was 1.814 ± 0.0056.

In the case of GGACGC, the “normalized RNA/DNA level with ligand (log10)” value in series [1] was found to be 1.86 ± 0.044. The “normalized RNA/DNA level without ligand (log10)” value in series [2] came to 1.49 ± 0.12.

Turning to CCUUCG, the “normalized RNA/DNA level with ligand (log10)” value in series [1] came to 1.88 ± 0.035. Further, the “normalized RNA/DNA level without ligand (log10)” value in series [2] was found to be 1.876 ± 0.0072.

For CCUUCA, the “normalized RNA/DNA level with ligand (log10)” value in series [1] was determined as 1.97 ± 0.074. The “normalized RNA/DNA level without ligand (log10)” value in series [2] was found to be 1.91 ± 0.04.
